Assay results from patent US7648964B2, “Use of lacritin in promoting ocular cell survival” (University of Virginia Patent Foundation, priority 2004, dated 2010).

How the values were obtained:
caspase-9 = experiment: Caspase-9 activity in human corneal epithelial cells treated with TNF-α; assay type: cell-based; settings: lacritin polypeptides 10 nM
Description: FIG. 13 graphically illustrates the ability of lacritin polypeptides (10 nM) to block TNFα induced caspase-9 activity in human corneal epithelial cells. The ordinate represents relative fluorescence units. White bars indicate 6 hours and diagonally-hatched bars indicate 9 hours.
Caspase-9 activity was measured in cells treated with various combinations of TNF-α, fragments of lacritin, and the PKC inhibitor Go6976. […] The PKC-α inhibitor Go6976 and C-25 fail to block this increase of the downstream initiator caspase-9.

caspase-8 = experiment: Caspase-8 activity in human corneal epithelial cells treated with TNF-α; assay type: cell-based
Description: FIG. 12 graphically illustrates the ability of lacritin polypeptides to block TNFα induced caspase-8 activity in human corneal epithelial cells. The ordinate represents relative fluorescence units. White bars indicate 1 hour and diagonally-hatched bars indicate 6 hours.
(§1) Lacritin-induced proliferation and calcium signaling was studied in the human corneal epithelial (HCE) cell line. HCE cells were grown at 37° C. in DMEM F/12 supplemented with 10% FBS and 50 μg/ml gentamicin. Each experiment was done in a dose- and time-dependent manner using TNF-α (5-20 ng/ml) and lacritin (1-10 nM). Cell viability was measured spectrophotometrically at an absorbance of 570 nm using the MTT assay. Caspase-8 activity was detected fluorometrically by measuring cleavage of the fluorogenic substrate IETD-pNA at an excitation wavelength of 405 nm. Lacritin-induced cell proliferation was studied by H3-thymidine incorporation and via fluorescence-based detection of PKC, PLC and cAMP. Calcium signaling was detected by confocal microscopy of Fluo-4 loaded cells.

[1] = system: human corneal epithelial (HCE) cell line; experiment: TNF-α-induced cell death in HCE cells (MTT cell viability); assay type: cell-based; settings: for protection from TNF-induced cell death (viability): 18 or 30 hours, FIG. 10
Description: as §1

PKCα [2] = experiment: Phospho-PKCα blot of HSG cell lysates; assay type: cell-based, human; settings: for concentration of optimal dephosphorylation: increasing molar levels
Description: For phosphotyrosine blotting and mitogenesis assays, cells in serum-containing media were seeded overnight in 24-well plates at a density of 0.5×10^5 cells/mm^2 corresponding to 20-30% confluency after cell attachment, incubated in serum-free media without supplements for 24 h (phosphotyrosine) or washed with serum-free media without supplements three times (mitogenesis) and incubated with lacritin (1-1000 nM), or positive controls EGF (1.6 nM) and 10% fetal bovine serum, or negative controls bovine serum albumin or no additive in serum-free media without supplements for the indicated times (phosphotyrosine) or 30 h (mitogenesis). For phosphotyrosine assays, cells were extracted in 1% NP40 containing sodium vanadate (2 mg/ml), DTT (5 mg/ml), protease inhibitors, 50 mM HEPES, 100 mM NaCl, and 2 mM EDTA; then separated by 10% SDS PAGE, transferred and blotted. The following antibodies (Cell Signaling Technology, Beverly Mass.) were tested: antiphosphotyrosine antibody (P-Tyr-100), anti-phospho-PKC αβII, anti-PKCα, anti-phospho-PKCδ, anti-phospho-PKC (pan), anti-p44/42 MAPK, anti-phospho-Raf, anti-phospho-SAPK/JNK, anti-phospho-p38 Map kinase, anti-phospho-Raf, anti-phospho-Akt, anti-phospho-CaMKII, anti-phospho-MARCKS, or anti-tubulin (loading control). After washing, bound antibodies were detected with peroxidase-labeled secondary antibody and ECL. With the exception of at least nine proteins in the P-Tyr-100 blot (FIG. 1), none of the effectors tested above appeared to be phospho-activated during lacritin signaling (not shown). For mitogenesis (Hussaini et al., '00), [^3H]-thymidine (2 mCi/ml) was added for the next 6 h. Incorporation was stopped with ice-cold phosphate buffered saline and followed by addition of cold and then room temperature trichloracetic acid (10%) for 10 min each, washing of cells with phosphate buffered saline, solubilization with 1 N sodium hydroxide, neutralization with 1 N hydrochloric acid, addition of scintillation fluid and then quantitation in a scintillation counter. To deplete PKCα in HSG cells, a pool of four PKCα-specific siRNAs (100 nM) were transfected via LipofectAMINE 2000 in Opti-MEMI Reduced Serum Medium (Invitrogen, Grand Island N.Y.) without serum and antibiotics according to manufacturer's instructions. Each of the four siRNAs was also individually transfected. In negative controls, cells were transfected with a pool of four lamin-specific siRNAs (Upstate LLC, Charlottesville Va.; Dharmacon Inc, Lafayette Colo.). Seventy-two hours post-transfection, mitogenesis was assessed by co-addition of 10 […] lacritin and [^3H]-thymidine (2 mCi/ml) (Amersham, Piscataway N.J.) for 24 hrs. PKCα depletion was confirmed by Western blotting.
We imaged PKCα in cells 15 min after treatment (FIG. 8). Nonmitogenic construct/fragment C-25 (10 nM) had no effect, leaving PKCa diffusely distributed throughout the cytoplasm. […] The phosphorylation state of PKCα influences its translocation site. Hyperphosphorylated PKCα becomes associated with the plasma membrane whereas hypophosphorylated or dephosphorylated PKCα is known to translocate to the perinuclear Golgi region. To determine if the latter is true and if so over what time course, we treated cells with lacritin, N-24 and C-25, and then blotted cell lysates for phospho-PKC ? (FIG. 8B). 10 nM lacritin promotes PKC ? dephosphorylation within 1 min of addition. This form is sustained for at least 15 min, but by 30 min has returned to baseline phosphorylation. Dephosphorylation triggered by increasing molar levels of lacritin or N-24 mirrored the proliferation response with optimal dephosphorylation at 10 nM. Non-mitogenic C-25 had no effect, whereas positive control 4β-phorbol 12-myristate 13-acetate-promoted hyperphosphorylation.

PKCα [3] = experiment: PKCα translocation in HSG cells (immunofluorescence, fractionation); assay type: cell-based, human; settings: for PKCα translocation: 15 min after treatment
Text: In order to dissect the molecular pathways leading to the cell survival by lacritin, protein kinases and transcriptional factors were studied by Western blotting and immunofluorescence microscopy.
Images were acquired at 2-3 s intervals using LaserSharp2000 software (Bio-Rad) and store on disc for later analysis.

Molecule | effect on TNF-α-induced caspase-9 activity (caspase-9) | effect on TNF-α-induced caspase-8 activity (caspase-8) | protection from TNF-induced cell death (viability) [1] | effect on lacritin-dependent PKCα dephosphorylation (PKCα [2]; pertussis toxin 100 ng/ml, Go 6976, U73122, U73343 1 μM) | effect on lacritin-dependent PKCα translocation (PKCα [3]; pertussis toxin 100 ng/ml, Go 6976, U73122, U73343, cyclosporine 1 μM, nifedipine 10 μM) | concentration of optimal dephosphorylation (PKCα [2]) [nM] | PKCα translocation (PKCα [3]) | effect on TNF-α-induced cell death ([1]; lacritin 10 nM pretreatment) | time dephosphorylated form is sustained (PKCα [2]; 10 nM lacritin) | time of return to baseline phosphorylation (PKCα [2]; 10 nM lacritin) [min] | time to PKCα dephosphorylation (PKCα [2]; 10 nM lacritin) [min] | PKC alpha at the cell membrane (PKCα [3]; about 5 minutes lacritin treatment, subcellular fractionation, Western blotting) | PKC alpha localization (PKCα [3]; lacritin treatment for 1 hour, immunofluorescence)
Cn1c2ccccc2c2c3c(c4c5ccccc5n(CCC#N)c4c21)CNC3=O [Go 6976] | fail to block | fail to block | no effect on viability loss | inhibited | inhibited | – | – | – | – | – | – | – | –
N-24: deletion mutant comprising a deletion of the 24 amino terminal amino acids of lacritin (protein, homo sapiens, deletion mutant comprising a deletion of the 24 amino terminal amino acids of lacritin) DSTGADPAQEAGTSKPNEEISGPAEPASPPETTTTAQETSAAAVQGTAKVTSSRQELNPLKSIVEKSILLTEQALAKAGKGMHGGVPGGKQFIENGSEFAQKLLKKFSLLKPWA | blocked | blocked | protect | – | – | 10 | shifted PKCα primarily to the perinuclear Golgi region | – | – | – | – | – | –
lacritin: recombinant human lacritin from E. coli; mature 119 residue fragment (SEQ ID NO:10) of native lacritin SEQ ID NO:4 (protein, listed as Homo sapiens) EDASSDSTGADPAQEAGTSKPNEEISGPAEPASPPETTTTAQETSAAAVQGTAKVTSSRQELNPLKSIVEKSILLTEQALAKAGKGMHGGVPGGKQFIENGSEFAQKLLKKFSLLKPWA | blocked | completely blocked | protect | – | – | 10 | shifted PKCα primarily to the perinuclear Golgi region | attenuated | at least 15 min | ≤ 30 | ≤ 1 | very little PKC alpha was detected at the cell membrane | localize outside of the nuclear envelope
